B1: Myosin-2 (Saccharomyces cerevisiae), P19524 (parent)
chain: MSFEVGTRCWYPHKELGWIGAEVIKNEFNDGKYHLELQLEDDEIVSVDTKDLNNDKDQSLPLLRNPPILEATEDLTSLSYLNEPAVLHAIKQRYSQLNIYTYSGIVLIATNPFDRVDQLYTQDMIQAYAGKRRGELEPHLFAIAEEAYRLMKNDKQNQTIVVSGESGAGKTVSAKYIMRYFASVEEENSATVQHQVEMSETEQKILATNPIMEAFGNAKTTRNDNSSRFGKYLEILFDKDTSIIGARIRTYLLERSRLVYQPPIERNYHIFYQLMAGLPAQTKEELHLTDASDYFYMNQGGDTKINGIDDAKEYKITVDALTLVGITKETQHQIFKILAALLHIGNIEIKKTRNDASLSADEPNLKLACELLGIDAYNFAKWVTKKQIITRSEKIVSNLNYSQALVAKDSVAKFIYSALFDWLVENINTVLCNPAVNDQISSFIGVLDIYGFEHFEKNSFEQFCINYANEKLQQEFNQHVFKLEQEEYVKEEIEWSFIEFNDNQPCIDLIENKLGILSLLDEESRLPAGSDESWTQKLYQTLDKSPTNKVFSKPRFGQTKFIVSHYALDVAYDVEGFIEKNRDTVSDGHLEVLKASTNETLINILEGLEKAAKKLEEAKKLELEQAGSKKPGPIRTVNRKPTLGSMFKQSLIELMNTINSTNVHYIRCIKPNADKEAWQFDNLMVLSQLRACGVLETIRISCAGFPSRWTFEEFVLRYYILIPHEQWDLIFKKKETTEEDIISVVKMILDATVKDKSKYQIGNTKIFFKAGMLAYLEKLRSNKMHNSIVMIQKKIRAKYYRKQYLQISQAIKYLQNNIKGFIIRQRVNDEMKVNCATLLQAAYRGHSIRANVFSVLRTITNLQKKIRKELKQRQLKQEHEYNAAVTIQSKVRTFEPRSRFLRTKKDTVVVQSLIRRRAAQRKLKQLKADAKSVNHLKEVSYKLENKVIELTQNLASKVKENKEMTERIKELQVQVEESAKLQETLENMKKEHLIDIDNQKSKDMELQKTIENNLQSTEQTLKDAQLELEDMVKQHDELKEESKKQLEELEQTKKTLVEYQTLNGDLQNEVKSLKEEIARLQTAMSLGTVTTSVLPQTPLKDVMGGGASNFNNMMLENSDLSPNDLNLKSRSTPSSGNNHIDSLSVDRENGVNATQINEELYRLLEDTEILNQEITEGLLKGFEVPDAGVAIQLSKRDVVYPARILIIVLSEMWRFGLTKQSESFLAQVLTTIQKVVTQLKGNDLIPSGVFWLANVRELYSFVVFALNSILTEETFKNGMTDEEYKEYVSLVTELKDDFEALSYNIYNIWLKKLQKQLQKKAINAVVISESLPGFSAGETSGFLNKIFANTEEYTMDDILTFFNSIYWCMKSFHIENEVFHAVVTTLLNYVDAICFNELIMKRNFLSWKRGLQLNYNVTRLEEWCKTHGLTDGTECLQHLIQTAKLLQVRKYTIEDIDILRGICYSLTPAQLQKLISQYQVADYESPIPQEILRYVADIVKKEAALSSSGNDSKGHEHSSSIFITPETGPFTDPFSLIKTRKFDQVEAYIPAWLSLPSTKRIVDLVAQQVVQDGH
partner: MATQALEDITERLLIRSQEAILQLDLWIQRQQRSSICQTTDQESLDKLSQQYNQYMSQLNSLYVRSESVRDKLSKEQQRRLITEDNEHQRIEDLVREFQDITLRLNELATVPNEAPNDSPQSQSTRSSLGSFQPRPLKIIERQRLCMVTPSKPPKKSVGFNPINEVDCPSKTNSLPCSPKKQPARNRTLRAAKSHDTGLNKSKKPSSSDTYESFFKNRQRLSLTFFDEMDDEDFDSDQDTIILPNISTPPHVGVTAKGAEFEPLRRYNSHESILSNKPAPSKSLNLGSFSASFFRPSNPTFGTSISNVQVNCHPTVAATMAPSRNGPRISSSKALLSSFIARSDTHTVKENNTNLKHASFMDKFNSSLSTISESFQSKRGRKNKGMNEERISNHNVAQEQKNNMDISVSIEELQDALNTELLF
B2: vacuole-related protein 17 (Saccharomyces cerevisiae), P25591 (parent)
chain: B1 partner

Variants of: B1
Conditions: with vac17_yeast VAC17, P25591

Variant	effect of a mutation on the interaction
G1248D	disrupting interaction strength
D1297N	disrupting interaction strength
L1301P	disrupting interaction strength
N1304D	disrupting interaction strength
N1304S	disrupting interaction strength

Variants of: B1
Conditions: with vac17_yeast VAC17, P25591
Remark: another data set of the same source

Variant	effect of a mutation on the interaction
G1248D	decreasing interaction strength

Variants of: B1
Conditions: with vac17_yeast VAC17, P25591
Remark: another data set of the same source

Variant	effect of a mutation on the interaction
G1248N	decreasing interaction strength

Variants of: B2
Conditions: with myo2_yeast MYO2, P19524

Variant	effect of a mutation on the interaction
MATQALEDITERLLIRSQEAILQLDLWIQRQQRSSICQTTDQESLDKLSQQYNQYMSQLNSLYVRSESVRDKLSKEQQRRLITEDNEHQRIEDLVREFQDITLRLNELATVPNEAPNDSPQSQSTRSSLGSFQPRPLKIVERQRLCMVTPSKPPKKSVGFNPINEVDCPSKTNSLPCSPKKQPARNRTLRAAKSHDTGLNKSKKPSSSDTYESFFKNRQRLSLTFFDEMDDEDFDSDQDTIILPNISTPPHVGVTAKGAEFEPLRRYNSHESILSNKPAPSKSLNLGSFSASFFRPSNPTFGTSISNVQVNCHPTVAATMAPSRNGPRISSSKALLSSFIARSDTHTVKENNTNLKHASFMDKFNSSLSTISESFQSKRGRKNKGMNEERISNHNVAQEQKNNMDISVSIEELQDALNTELLF [I140V]	with no effect
